Blank lines part the entries; values can stand above or below the binder they belong to. Starred links: 1 amine or outer side, 2 acyl side, 3 side chain; linkers in the order of their positions; H or OH if unused. Positions of bridges follow the written chain, without caps; N, C: chain ends. Non-standard residues stand in square brackets, D forms with d. No end group written: not given here. Trp(5-Cl) = N[C@@H](Cc1c[nH]c2ccc(Cl)cc12)C(=O)O; Trp(5-OH) = N[C@@H](Cc1c[nH]c2ccc(O)cc12)C(=O)O; mXylylene = c1cc(C[*:1])cc(C[*:2])c1; Bta = N[C@@H](Cc1csc2ccccc12)C(=O)O; Aib = CC(C)(N)C(=O)O; Sar = CNCC(=O)O
Tests used:
[1] = biological target: T1, human carbonic anhydrase 9 (CAIX) (human, UniProt Q16790 38-459); assay: FACS competition on HT-29 cells against tracer 3BP-2776; pIC50 category C = pIC50 6.1-7.0
Protocol: (§1) CAIX-expressing human HT-29 colorectal cancer cells (DSMZ, RRID: CVCL_0320) were cultured in McCoys's 5A modified medium (Biochrom, #F1015) including 10% fetal calf serum (FCS), 2 mM L-glutamine, 100 U/ml penicillin and 100 μg/mL streptomycin. Cells were detached with Accutase (Biolegend, #423201) and washed in FACS buffer (PBS including 1% FCS). Cells were diluted in FACS buffer to a final concentration of 500.000 cells per ml. 200 μL of the cell suspension were transferred to a u-shaped non-binding 96-well plate (Greiner) and cells were washed in ice-cold FACS buffer.
(§2) When biotinylated compounds were used an additional incubation step with 1 μg/mL APC-Streptavidin (Miltenyi; #130-106-791) in 50 μL FACS buffer for 30 minutes on ice was performed.
(§3) Cells were washed twice with ice-cold FACS buffer and analyzed in an Attune NxT flow cytometer (Thermo Fisher). Median fluorescence intensities (MFI) of the APC/Cy5-channel were calculated by Attune NxT software.

[2] = biological target: T1, human carbonic anhydrase 9 (CAIX); assay: FACS competition on HT-29 cells against tracer 3BP-2776; pIC50 category B = pIC50 7.1-8.0
Protocol: as §1, §2, §3

pIC50 [1]: 6.1 to 7 pic50
B1: 3BP-3312 (peptide)
peptide: Ac-VYCE[Sar]DWLT[Trp(5-Cl)]QC-NH2
modifications: linker 3-12 via mXylylene
SMILES: CC(=O)N[C@H](C(=O)N[C@@H](Cc1ccc(O)cc1)C(=O)N[C@H]1CSCc2cccc(c2)CSC[C@@H](C(N)=O)NC(=O)[C@H](CCC(N)=O)NC(=O)[C@H](Cc2c[nH]c3ccc(Cl)cc23)NC(=O)[C@H]([C@@H](C)O)NC(=O)[C@H](CC(C)C)NC(=O)[C@H](Cc2c[nH]c3ccccc23)NC(=O)[C@H](CC(=O)O)NC(=O)CN(C)C(=O)[C@H](CCC(=O)O)NC1=O)C(C)C
notes: also called Ac-Val-Tyr-[Cys(3MeBn)-Glu-Nmg-Asp-Trp-Leu-Thr-5Clw-Gln-Cys]-NH2

pIC50 [2]: 7.1 to 8 pic50
B2: 3BP-3328 (peptide)
peptide: VYCEGDWLTWQC-NH2
modifications: linker 3-12 via mXylylene; not fully specified (N-terminus); also: indium complexed by DOTA

pIC50 [1]: 6.1 to 7 pic50
B3: 3BP-3049 (peptide)
peptide: Ac-VYCEGDWL[dT]WQC-NH2
modifications: linker 3-12 via mXylylene
SMILES: CC(=O)N[C@H](C(=O)N[C@@H](Cc1ccc(O)cc1)C(=O)N[C@H]1CSCc2cccc(c2)CSC[C@@H](C(N)=O)NC(=O)[C@H](CCC(N)=O)NC(=O)[C@H](Cc2c[nH]c3ccccc23)NC(=O)[C@@H]([C@H](C)O)NC(=O)[C@H](CC(C)C)NC(=O)[C@H](Cc2c[nH]c3ccccc23)NC(=O)[C@H](CC(=O)O)NC(=O)CNC(=O)[C@H](CCC(=O)O)NC1=O)C(C)C
notes: also called Ac-Val-Tyr-[Cys(3MeBn)-Glu-Gly-Asp-Trp-Leu-thr-Trp-Gln-Cys]-NH2

pIC50 [2]: 7.1 to 8 pic50
B4: 3BP-3053 (peptide)
peptide: Ac-VYCEGAWLTWQC-NH2
modifications: linker 3-12 via mXylylene
SMILES: CC(=O)N[C@H](C(=O)N[C@@H](Cc1ccc(O)cc1)C(=O)N[C@H]1CSCc2cccc(c2)CSC[C@@H](C(N)=O)NC(=O)[C@H](CCC(N)=O)NC(=O)[C@H](Cc2c[nH]c3ccccc23)NC(=O)[C@H]([C@@H](C)O)NC(=O)[C@H](CC(C)C)NC(=O)[C@H](Cc2c[nH]c3ccccc23)NC(=O)[C@H](C)NC(=O)CNC(=O)[C@H](CCC(=O)O)NC1=O)C(C)C

pIC50 [1]: 6.1 to 7 pic50
B5: 3BP-3045 (peptide)
peptide: Ac-VYC[dE]GDWLTWQC-NH2
modifications: linker 3-12 via mXylylene
SMILES: CC(=O)N[C@H](C(=O)N[C@@H](Cc1ccc(O)cc1)C(=O)N[C@H]1CSCc2cccc(c2)CSC[C@@H](C(N)=O)NC(=O)[C@H](CCC(N)=O)NC(=O)[C@H](Cc2c[nH]c3ccccc23)NC(=O)[C@H]([C@@H](C)O)NC(=O)[C@H](CC(C)C)NC(=O)[C@H](Cc2c[nH]c3ccccc23)NC(=O)[C@H](CC(=O)O)NC(=O)CNC(=O)[C@@H](CCC(=O)O)NC1=O)C(C)C

pIC50 [1]: 6.1 to 7 pic50
B6: 3BP-2836 (peptide)
peptide: Ac-MVYCEGDWLTWQC-NH2
modifications: linker 4-13 via mXylylene
SMILES: CSCC[C@H](NC(C)=O)C(=O)N[C@H](C(=O)N[C@@H](Cc1ccc(O)cc1)C(=O)N[C@H]1CSCc2cccc(c2)CSC[C@@H](C(N)=O)NC(=O)[C@H](CCC(N)=O)NC(=O)[C@H](Cc2c[nH]c3ccccc23)NC(=O)[C@H]([C@@H](C)O)NC(=O)[C@H](CC(C)C)NC(=O)[C@H](Cc2c[nH]c3ccccc23)NC(=O)[C@H](CC(=O)O)NC(=O)CNC(=O)[C@H](CCC(=O)O)NC1=O)C(C)C

pIC50 [1]: 6.1 to 7 pic50
B7: 3BP-3310 (peptide)
peptide: Ac-VYCE[Sar]D[Trp(5-OH)]LTWQC-NH2
modifications: linker 3-12 via mXylylene
SMILES: CC(=O)N[C@H](C(=O)N[C@@H](Cc1ccc(O)cc1)C(=O)N[C@H]1CSCc2cccc(c2)CSC[C@@H](C(N)=O)NC(=O)[C@H](CCC(N)=O)NC(=O)[C@H](Cc2c[nH]c3ccccc23)NC(=O)[C@H]([C@@H](C)O)NC(=O)[C@H](CC(C)C)NC(=O)[C@H](Cc2c[nH]c3ccc(O)cc23)NC(=O)[C@H](CC(=O)O)NC(=O)CN(C)C(=O)[C@H](CCC(=O)O)NC1=O)C(C)C
notes: also called Ac-Val-Tyr-[Cys(3MeBn)-Glu-Nmg-Asp-Hyw-Leu-Thr-Trp-Gln-Cys]-NH2

pIC50 [1]: 6.1 to 7 pic50
B8: 3BP-3048 (peptide)
peptide: Ac-VYCEGDW[dL]TWQC-NH2
modifications: linker 3-12 via mXylylene
SMILES: CC(=O)N[C@H](C(=O)N[C@@H](Cc1ccc(O)cc1)C(=O)N[C@H]1CSCc2cccc(c2)CSC[C@@H](C(N)=O)NC(=O)[C@H](CCC(N)=O)NC(=O)[C@H](Cc2c[nH]c3ccccc23)NC(=O)[C@H]([C@@H](C)O)NC(=O)[C@@H](CC(C)C)NC(=O)[C@H](Cc2c[nH]c3ccccc23)NC(=O)[C@H](CC(=O)O)NC(=O)CNC(=O)[C@H](CCC(=O)O)NC1=O)C(C)C
notes: also called Ac-Val-Tyr-[Cys(3MeBn)-Glu-Gly-Asp-Trp-leu-Thr-Trp-Gln-Cys]-NH2

pIC50 [1]: 6.1 to 7 pic50
B9: 3BP-3044 (peptide)
peptide: Ac-V[dY]CEGDWLTWQC-NH2
modifications: linker 3-12 via mXylylene
SMILES: CC(=O)N[C@H](C(=O)N[C@H](Cc1ccc(O)cc1)C(=O)N[C@H]1CSCc2cccc(c2)CSC[C@@H](C(N)=O)NC(=O)[C@H](CCC(N)=O)NC(=O)[C@H](Cc2c[nH]c3ccccc23)NC(=O)[C@H]([C@@H](C)O)NC(=O)[C@H](CC(C)C)NC(=O)[C@H](Cc2c[nH]c3ccccc23)NC(=O)[C@H](CC(=O)O)NC(=O)CNC(=O)[C@H](CCC(=O)O)NC1=O)C(C)C

pIC50 [1]: 6.1 to 7 pic50
B10: 3BP-3315 (peptide)
peptide: Ac-VYCE[Sar]DWLT[Bta]QC-NH2
modifications: linker 3-12 via mXylylene
SMILES: CC(=O)N[C@H](C(=O)N[C@@H](Cc1ccc(O)cc1)C(=O)N[C@H]1CSCc2cccc(c2)CSC[C@@H](C(N)=O)NC(=O)[C@H](CCC(N)=O)NC(=O)[C@H](Cc2csc3ccccc23)NC(=O)[C@H]([C@@H](C)O)NC(=O)[C@H](CC(C)C)NC(=O)[C@H](Cc2c[nH]c3ccccc23)NC(=O)[C@H](CC(=O)O)NC(=O)CN(C)C(=O)[C@H](CCC(=O)O)NC1=O)C(C)C
notes: also called Ac-Val-Tyr-[Cys(3MeBn)-Glu-Nmg-Asp-Trp-Leu-Thr-Bta-Gln-Cys]-NH2

pIC50 [1]: 6.1 to 7 pic50
B11: 3BP-3061 (peptide)
peptide: Ac-VYCEG[Aib]WLTWQC-NH2
modifications: linker 3-12 via mXylylene
SMILES: CC(=O)N[C@H](C(=O)N[C@@H](Cc1ccc(O)cc1)C(=O)N[C@H]1CSCc2cccc(c2)CSC[C@@H](C(N)=O)NC(=O)[C@H](CCC(N)=O)NC(=O)[C@H](Cc2c[nH]c3ccccc23)NC(=O)[C@H]([C@@H](C)O)NC(=O)[C@H](CC(C)C)NC(=O)[C@H](Cc2c[nH]c3ccccc23)NC(=O)C(C)(C)NC(=O)CNC(=O)[C@H](CCC(=O)O)NC1=O)C(C)C
notes: also called Ac-Val-Tyr-[Cys(3MeBn)-Glu-Gly-Aib-Trp-Leu-Thr-Trp-Gln-Cys]-NH2

pIC50 [1]: 6.1 to 7 pic50
B12: 3BP-3047 (peptide)
peptide: Ac-VYCEG[dD]WLTWQC-NH2
modifications: linker 3-12 via mXylylene
SMILES: CC(=O)N[C@H](C(=O)N[C@@H](Cc1ccc(O)cc1)C(=O)N[C@H]1CSCc2cccc(c2)CSC[C@@H](C(N)=O)NC(=O)[C@H](CCC(N)=O)NC(=O)[C@H](Cc2c[nH]c3ccccc23)NC(=O)[C@H]([C@@H](C)O)NC(=O)[C@H](CC(C)C)NC(=O)[C@H](Cc2c[nH]c3ccccc23)NC(=O)[C@@H](CC(=O)O)NC(=O)CNC(=O)[C@H](CCC(=O)O)NC1=O)C(C)C
notes: also called Ac-Val-Tyr-[Cys(3MeBn)-Glu-Gly-asp-Trp-Leu-Thr-Trp-Gln-Cys]-NH2

Reference: patent US20250339569A1 (3B PHARMACEUTICALS, published 2025)
